{
  "source": "paper PMC4075491",
  "about": "“Crystallography based structure elucidation of the complex of C-terminal fragment of Aβ polypeptide of Alzheimer’s disease with phospholipase A2” (BMC Genomics, 2014)",
  "target": "T1, phospholipase A2 (PLA2) from cobra venom (cobra, UniProt P60045 8-126)",
  "T1 construct": "source: purified to homogeneity from cobra venom",
  "T1 sequence (P60045 8-126)": "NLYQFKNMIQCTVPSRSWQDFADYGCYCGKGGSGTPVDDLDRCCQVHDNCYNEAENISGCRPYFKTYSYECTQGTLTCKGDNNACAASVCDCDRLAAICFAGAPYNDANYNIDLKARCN",
  "test": "enzyme kinetic studies (competitive); kinetic studies; the peptide binds to PLA2 in a competitive manner; no conditions told",
  "details": "both partners purified",
  "data": [
    {"binder": "VGGVVIA (C-terminal heptapeptide of the Aβ polypeptide of Alzheimer's disease, residues 36-42; numbers count on: the Aβ peptide; also called VGGVVIA; Aβ_(36-42) peptide)", "note": "[Aβ(36-42) C-terminal heptapeptide Val-Gly-Gly-Val-Val-Ile-Ala]", "values": [
      {"measurement": "Ki", "result": 520, "unit": "nM"}
    ]}
  ]
}
